Assays:
olfr62 [1] = assay: Living-cell staining of cell-surface olfr62; format: cell-based, mouse
Method: The proteins encoded by these clones were named REEP1, for Receptor Expression Enhancing Protein 1 and RTP1, for Receptor Transporting Protein 1. Subsequently, RTP2 was found, a close relative of RTP1. […] Next, REEP1, RTP1, and RTP2 were tested to detect a similar effect in promoting cell-surface expression of other ORs. Four different ORs (mouse OREG, mouse olfr62, mouse OR-S46 and rat I7) were expressed in 293T cells with or without REEP1, RTP1, or RTP2. […] Additionally, ORs transfected with REEP and/or RTP generated more immunofluorescent cells and stronger signals in positive cells compared with ORs without REEP and/or RTP (see FIG. 2A). The signal intensity and the number of immunopositive cells varied when using different ORs at each condition. […] Nonetheless, occasional immunopositive cells were observed only when the accessory proteins were co-expressed. The effects of RTP1 or RTP2 were consistently more robust than that of REEP1. The enhancement of cell-surface expression was specific for ORs and not for other GPCRs: neither REEP and/or RTP enhanced expression of the β2 adrenergic receptor, mT2R5 (a mouse bitter taste receptor) (see, e.g., Chandrashekar, J., et al. (2000) Cell 100, 703-711; herein incorporated by reference in its entirety), or a V2R pheromone receptor (VR4) (see, e.g., Matsunami, H., and Buck, L. B. (1997) Cell 90, 775-784; herein incorporated by reference in its entirety) (see FIG. 2A and FIG. 3). Finally, enhancement of cell-surface expression of MOR203-1 was not observed when other members of the REEP and RTP families (REEP2 and RTP4) were co-expressed.
293T cells were maintained in minimal essential medium containing 10% fetal bovine serum (M10). Lipofectamine 2000 (Invitrogen) was used for transfection. In live-cell staining, 16 hours after transfection, cells were incubated in M10 containing anti rhodopsin antibody, 4D2 (see, e.g., Laird, D. W., and Molday, R. S. (1988) Invest Opthalmol V is Sci 29, 419-428; herein incorporated by reference in its entirety) and 15 mM NaN3 at 4 degrees C. for 1 hour. After washing, cells were incubated with Cy3-conjugated anti mouse IgG (Jackson Immunologicals), washed and mounted. For FACS analysis, 4D2 and PE-conjugated anti mouse IgG (Jackson Immunologicals) were used to monitor the Rho tagged receptor expression. Anti HA rabbit antibodies (Sigma) and Alexa 488 conjugated anti rabbit IgG (Molecular Probes) was used to stain the HA-β2 adrenergic receptor. To establish the Hana3a cells, 1 ug/ml of puromycin was used for selection. 96 colonies were picked and assayed using luciferase assay using OREG.

MOR203-1 = assay: Co-immunoprecipitation with HA-tagged MOR203-1; format: binding, mouse; conditions: Flag-tagged protein, 293T cells, HA-MOR203-1 precipitated
Method: Given the ability of REEP and/or RTP to promote cell-surface expression of ORs, it was hypothesized that they may also interact with OR proteins. This was assessed using co-immunoprecipitation assays. HA-tagged MOR203-1 and Flag-tagged REEP1, RTP1 or ICAP-1, a negative control (see, e.g., Zawistowski, J. S., et al. (2002) Hum Mol Genet. 11, 389-396; herein incorporated by reference in its entirety) were transfected in 293T cells. After the cell extracts were precipitated with anti-Flag antibodies, proteins were eluted in SDS-sample buffer at room temperature whereupon western blotting analysis was performed to detect the OR proteins. OR proteins were detected as high molecular weight bands after precipitation of REEP1 or RTP1 (see FIG. 7B, lanes 1 and 2). […] The present invention is not limited to a particular mechanism. Indeed, an understanding of the mechanism is not necessary to practice the present invention.
293T cells in 100 mm dishes were transfected with ORs, REEP1, and/or RTP1 cDNAs. 16 hours after transfection, cells were lysed in lysis buffer (50 mM Tris (7.4), 150 mM NaCl, 1% NP-40, 0.5 mM PMSF, 2 mM Benzamidene, 0.5 ug/ml Leupeptin, 1.4 ug/ml pepstatin A, 2.4 ug/ml chymostatin, 15 ug/ml aprotinin, 1 mM sodium orthovanadate). The lysis were incubated with anti-Flag M2 affinity gel (Sigma) or anti-HA affinity matrix (Roche) for 2 hours at 4 degrees C. and washed with lysis buffer. Subsequently, the bound proteins were eluted by incubation with SDS sample buffer at room temperature for 2 hours. SDS-PAGE and western blotting were performed according to Mini-Protean 3 Cell (Bio-Rad) instruction manual. ECL (Amersham) was used for detecting proteins on membranes.

olfr62 [2] = assay: CRE-luciferase reporter gene assay, olfr62; format: cell-based, mouse; conditions: 293T cells and Hana3A cells expressing RTP1 variant
Method: Four ORs (S6/79, S18, S46 and S50) previously assayed using other techniques (see, e.g., Malnic, B., et al. (1999) Cell 96, 713-723; herein incorporated by reference in its entirety) were tested against an assay panel of aliphatic alcohols, aldehydes and acids and some other odorants. Additionally, five “orphan” class I ORs (MOR23-1, MOR31-4, MOR31-6, MOR32-5 and MOR32-11) whose cognate ligands were unknown were tested. At a suprathreshold concentration of 100 uM, all these ORs were odorant selective, responding to only a small subset of the odorants tested (see FIG. 11A). This specificity was retained at lower, more physiologically relevant concentrations. Many of these ORs responded to odorants present in micromolar concentrations. The cell-surface expression of these ORs by living-cell immunofluorescence were evaluated. Some ORs (S18, MOR31-4, MOR31-6 and MOR32-5) were strongly expressed while other ORs (S6, S50, MOR23-1, MOR32-11) were weakly expressed (see FIG. 12). The present invention is not limited to a particular mechanism. Indeed, an understanding of the mechanism is not necessary to practice the present invention. […] Finally, two additional orphan class II ORs, MOR203-1 and olfr62, were tested against a panel of 139 odorants. […] Olfr62 responded to coumarine and piperonal (see FIG. 11C). […] When parental 293T cells for these ORs were used in this luciferase assay, little or no response to the odorants was observed. The present invention is not limited to a particular mechanism. Indeed, an understanding of the mechanism is not necessary to practice the present invention.
Dual-Glo system (Promega) for luciferase assay was used. CRE-Luciferase (Stratagene) was used to measure the receptor activities. Renilla luciferase driven by constitutively active SV40 promoter (pRL-SV40: Promega) was used as an internal control. Cells were plated on poly-D-lysine coated 96 well plates (BIOCOAT, Beckton Dickinson). After 8 hours (for experiments shown in FIGS. 8B and 8C) or 12 hours (for experiments shown in FIG. 8D and FIG. 11) after transfection, the medium was replaced with CD293 chemically defined medium (Invitrogen) and the plates were incubated for one hour at 37 degrees C. The medium was replaced with 50 ul of odorant solutions dissolved in CD293 and incubated for 10 hours (for experiments shown in FIGS. 8B and 8C) or 4 hours (for experiments shown in FIG. 8D and FIG. 11) at 37 degrees C. The manufacture's protocol for measuring luciferase and Renilla luciferase activities was followed. Luminescence was measured using Wallac Victor 1420 (Perkin-Elmer). Normalized luciferase activity was calculated as [Luc (N)-Luc (0)]/RL (N), where Luc (N)=Luminescent count of a certain well, Luc (0)=Luminescent count without odorant for each OR, and RL (N)=Luminescent count of Renilla Luciferase of each well. For cAMP assays, cells were plated onto 24-well plate. […]. Prism software (Graphpad) was used for data analysis. […]

[3] = accessory protein co-transfected in 293T cells

B1: RTP1-D1: RTP1 variant from deleting portions of RTP1-D; murine SEQ ID NO: 48 (protein, listed as Mus musculus)
chain: MRIFRPWRLRCPALHLPSFPTFSIKCSLPPLPTDEDMCKSVTTGEWKKVFYEKMEEVKPADSWDFIIDPNLKHNVLAPGWKQYLELHASGRFHCSWCWHTWQSPHVVILFHMYLDKAQRAGSVRMRVFKQLCYECGTARLDESSMLEENIESLVDNLITSLREQCYGERGGHYRIHVASRQDNRRHRGEFCEACQEGIVHWKPSEKLLEEEA
- cell-surface expression of olfr62 (olfr62 [1]; [3]): Increased cell-surface staining

B2: ICAP-1: a negative control protein, Flag-tagged (protein, UniProt O14713 1-200, looked up)
Integrin beta-1-binding …: MFRKGKKRHSSSSSQSSEISTKSKSVDSSLGGLSRSSTVASLDTDSTKSSGQSNNNSDTCAEFRIKYVGAIEKLKLSEGKGLEGPLDLINYIDVAQQDGKLPFVPPEEEFIMGVSKYGIKVSTSDQYDVLHRHALYLIIRMVCYDDGLGAGKSLLALKTTDASNEEYSLWVYQCNSLEQAQAICKVLSTAFDSVLTSEKP
modifications: Flag tag
notes: a negative control protein, Flag-tagged
- co-precipitation with HA-MOR203-1 (MOR203-1): not detectable

B3: RTP1-D: RTP1 variant generated by deleting portions of RTP1; murine SEQ ID NO: 44 (protein, listed as Mus musculus)
chain: MRIFRPWRLRCPALHLPSFPTFSIKCSLPPLPTDEDMCKSVTTGEWKKVFYEKMEEVKPADSWDFIIDPNLKHNVLAPGWKQYLELHASGRFHCSWCWHTWQSPHVVILFHMYLDKAQRAGSVRMRVFKQLCYECGTARLDESSMLEENIESLVDNLITSLREQCYGERGGHYRIHVASRQDNRRHRGEFCEACQEGIVHWKPSEKLLEEEATTYTFSRAPSPTKPQAETGSGC
- cell-surface expression of olfr62 (olfr62 [1]; RTP1 variant cDNA transfected into Hana3A cells or 293T cells): Increased cell-surface staining
- OLFR62 activity as indicated by luciferase expression (olfr62 [2]): Increased enhancement

B4: RTP1-D3: RTP1 variant from deleting portions of RTP1-D; murine SEQ ID NO: 50 (protein, listed as Mus musculus)
chain: MRIFRPWRLRCPALHLPSFPTFSIKCSLPPLPTDEDMCKSVTTGEWKKVFYEKMEEVKPADSWDFIIDPNLKHNVLAPGWKQYLELHASGRFHCSWCWHTWQSPHVVILFHMYLDKAQRAGSVRMRVFKQLCYECGTARLDESSMLEENIESLVDNLITSLREQCYGERGGHYRIHVASRQDNRRHRGEFCEACQEGIVHWKPSEKLLEEEATTYTFSRAPSPTKPQAETGSGCNFCSIPWCLFWATVLMLII
- cell-surface expression of olfr62 (olfr62 [1]; [3]): Increased cell-surface staining

Reference: US7838288B2, “Modulators of odorant receptors” (Duke University, priority 2004, dated 2010)
